From US8980255B2, “Treatment of autoimmune disease by modulating annexin-1 (lipocortin 1)” (Queen Mary & Westfield College, priority 2008, dated 2015) come the findings set out here.

Where no end group is shown, it is not given here.

In experiment [1] the test system is murine naïve lymph node T cells. Briefly: T cell proliferation (3H-thymidine incorporation), anti-CD3/CD28 stimulation. The format is cell-based. Here is the method:
Primary murine T cells were prepared from lymph nodes by negative selection. Briefly, axillary, inguinal, and mesenteric lymph nodes were teased apart to make a single cell suspension, then washed and layered over Ficoll. The buffy coat was washed 2 times and then incubated with the antibody mix and the magnetic beads following the manufacturer's instructions (mouse T-cell negative isolation kit; Dynal, Bromborough, United Kingdom). In some experiments, cells were further purified to obtain naive CD62L^+ CD4^+ T cells by using the Miltenyi Biotec CD62L^+ CD4^+ T-cell isolation kit. Th0 conditions were created by T cells for 4 days in 6-well plates precoated with anti-CD3 (5 μg/mL) and anti-CD28 (5 μg/mL) in complete RPMI medium (10% fetal calf serum [FCS], 2 mM L-glutamine, and 100 units mL^−1 gentamycin) containing murine IL-2 (20 U/mL). […]
Purified lymph node T cells (10^5 cells/mL) were incubated with medium alone or with different concentrations of hrAnx-A1 for 2 hours at 37° C. in Eppendorf tubes. […] After 18 hours, cultures were pulsed for 8 hours with 1 μCi (3.7×10^4 Bg) [^3H]-thymidine (Amersham Pharmacia Biotech, Piscataway, N.J.) and incorporated radioactivity was measured by automated scintillation counter (Packard Instruments, Pangbourne, United Kingdom). […]
A general note: Incorporation of labelled thymidine or its analogues reports DNA synthesis.

Experiment [2] has the same test system. Briefly: IL-2 production from anti-CD3/CD28 stimulated T cells. It is filed as cell-based. Here is the method:
The effects of an N-terminal peptide of hrAnx-A1 (peptide Ac 2-26) and of full length hrAnx-A1 on T cell activation were investigated. IL-2 production from murine naïve lymph node T cells was stimulated with 0.6, 1.25 or 2.5 μg/ml of anti-CD3/CD28 in the presence or absence of full length hrAnx-A1 (300 nM) or the Anx-A1 derived N-terminal peptide Ac.2-26 (100 μM) for 24 hrs.

Experiment [3] has the same test system. Briefly: CD25 and CD69 cell surface expression by FACS. It is filed as cell-based. As to conditions: hrAnx-A1 150, 300, 600 nM; anti-CD3/CD28 1.25-5.0 μg/ml, 12 hrs; FIGS. 3C, 3D. How it is done: Purified lymph node T cells were pretreated with human recombinant Anx-A1 for 2 hours at 37° C. in Eppendorf tubes and then stimulated with plate-bound anti-CD3 and anti-CD28 as indicated in the figures. After 16 hours, the cells were stained with PE-conjugated anti-CD69 (clone H1.2F3) and FITC-conjugated anti-CD25 (clone PC61.5) diluted in FACS buffer (PBS containing 1% FCS and 0.02% […]). Intact cells were gated by using forward and side scatter and were analyzed with the CellQuest program (Becton Dickinson, Franklin Lakes, N.J.) on a FACScan flow cytometer. […]
Murine naïve lymph node T cells were stimulated with anti-CD3/CD28 at a concentration of 1.25 μg/ml (left column), 2.5 μg/ml (middle column) and 5.0 μg/ml (right column), in the absence of (upper panels) or in the presence of (lower panels) hrAnx-A1 (600 nM) for 12 hrs and then analyzed for CD25 and CD69 expression by FACS.
In FIG. 3D, murine naïve lymph node T cells were stimulated with the indicated concentration of anti-CD3/CD28 in the presence of 150 (X), 300 ( ? ) and 600 (◯) nM of hrAnx-A1 for 12 hours and then analysed for CD25 (left graph) and CD69 (right graph) expression by FACS.
On the technique in general: A flow cytometer gives signals particle by particle.

In experiment [4] the test system is Activator Protein-1 (AP-1). Briefly: Electrophoretic Mobility Shift Assay for AP-1 activation in T cells. The format is cell-based. Particulars: T cells stimulated with anti-CD3/CD28 1.25 μg/ml in presence of hrAnx-A1; FIG. 5A. Here is the method: (§1) Nuclear extracts were harvested from 3×10^6 to 5×10^6 cells according to previously described protocols. Nuclear extracts (3 μg to 5 μg) were incubated with 1 μg (for NFAT) or 2 μg (for NF-κB and AP-1) of poly (dI:dC) in 20 μL binding buffer with ^32P end-labeled, double-stranded oligonucleotide probes (5×10^5 cpm), and fractionated on a 6% polyacrylamide gel (29:1 cross-linking ratio) in 0.5% TBE for 2.5 hours at 150 V. The NF-κB and AP-1 binding buffer (10×) contained 100 mM Tris-HCl, (pH 7.5), 500 mM NaCl, 10 mM EDTA, 50% glycerol, 10 mg/mL albumin, 30 mM GTP, 10 mM DTT. The NFAT binding buffer (10×) contained 100 mM Hepes (pH 7.9), 500 mM KCl, 1 mM EDTA, 1 mM EGTA, 50% glycerol, 5 mg/mL albumin, 1% Nonidet P-40, 10 mM DTT. The NF-κB and AP-1 double-stranded oligonucleotide probes were from Promega and the NFAT was from Santa Cruz Biotechnology (Santa Cruz, Calif.).
(§2) Investigations were carried out into how exogenous and endogenous Anx-A1 modulates T cell activation. The three major transcriptional activators of T cells, namely Activator Protein-1 (AP-1), Nuclear Factor-κB (NF-κB) and Nuclear Factor of Activated T cells (NFAT) were analysed in cells stimulated in presence of hrAnx-A1. […]
Background: In EMSA bound probe runs differently from free probe, usually more slowly.

Experiment [5] relates to Nuclear Factor-κB (NF-κB). Briefly: Electrophoretic Mobility Shift Assay for NF-κB activation in T cells. It is filed as cell-based. Particulars: T cells stimulated with anti-CD3/CD28 1.25 μg/ml in presence of hrAnx-A1; FIG. 5A. Here is the method:
as §1, §2

The test system of experiment [6] is Nuclear Factor of Activated T cells (NFAT). Briefly: Electrophoretic Mobility Shift Assay for NFAT activation in T cells. The format is cell-based. As to conditions: T cells stimulated with anti-CD3/CD28 1.25 μg/ml in presence of hrAnx-A1; FIG. 5A. Here is the method:
as §1, §2

Another experiment relates to naïve lymph node T cells. Briefly: Th1/Th2 differentiation in vitro, cytokine production on anti-CD3 restimulation. The format is cell-based, mice. Particulars: Th1 or Th2 conditions, hrAnx-A1 600 nM, anti-CD3 5.0 μg/ml re-stimulation 8 h; FIG. 7A. Here is the method: Primary murine T cells were prepared from lymph nodes by negative selection. Briefly, axillary, inguinal, and mesenteric lymph nodes were teased apart to make a single cell suspension, then washed and layered over Ficoll. The buffy coat was washed 2 times and then incubated with the antibody mix and the magnetic beads following the manufacturer's instructions (mouse T-cell negative isolation kit; Dynal, Bromborough, United Kingdom). In some experiments, cells were further purified to obtain naive CD62L^+ CD4^+ T cells by using the Miltenyi Biotec CD62L^+ CD4^+ T-cell isolation kit. Th0 conditions were created by T cells for 4 days in 6-well plates precoated with anti-CD3 (5 μg/mL) and anti-CD28 (5 μg/mL) in complete RPMI medium (10% fetal calf serum [FCS], 2 mM L-glutamine, and 100 units mL^−1 gentamycin) containing murine IL-2 (20 U/mL). Th1 conditions were created with murine IL-12 (3.4 ng/mL; eBioscience), IL-2 (20 U/mL; eBioscience), and anti-IL4 (clone 11B11; 2 μg/mL). Th2 conditions were created with IL-4 (3000 U/mL; Peprotech, Rocky Hill, N.J.), IL-2 (20 U/mL), and anti-IFN-γ (clone XMG1.2; 2 μg/mL). Jurkat cells were obtained from ATCC (Manassas, Va.) and were cultured in complete RPMI medium.
For Th1/Th2 cytokine production analysis, Th0/Th1/Th2 cells (10^6/mL) obtained after 4-day differentiation in skewing conditions and 1 day of resting in complete RPMI medium, were stimulated with plate-bound anti-CD3 (5 μg/mL) for 8 h in 24-well plates. Culture supernatants were collected and analyzed for IFN-γ, IL-2, IL-4 and IL-10 content by using Th1/Th2 panel ELISA kit (eBioscience). The IL-13 ELISA kit was also purchased from eBioscience.
Naïve lymph node T cells were differentiated in vitro in Th1 (black bars) or Th2 (white bars) conditions in presence or absence of hrAnx-A1 (600 nM) and then restimulated with plate-bound anti-CD3 (5.0 μg/ml) for 8 h to measure Th1 or Th2 cytokine production. Values are mean±S.E. of n=4-5 mice. **P<0.01

The subject of the next experiment is DBA mice. Briefly: collagen-induced arthritis (CIA) model. It is filed as in vivo. Particulars: 1 μg s.c. twice a day for 12 days after immunization with collagen, compared to PBS vehicle; FIGS. 8A, 8B. How it is done:
Mice were injected with hrAnx-A1 daily for 12 days after immunization with collagen (time during which naïve cells differentiate in Th effector cells) and thereafter the progression of the disease upon antigen challenge was analyzed. […] Synchronization of disease onset was obtained by boosting with collagen on day 21, and clinical signs were evident from day 22 (day 1 of the onset of the diseases). Values are mean±S.E. of n=6-8 mice. Groups were compared using the Maim-Whitney test. *P<0.01

For the molecule “CH3CO-AMVSEFLKQA WFIENEEQEYVQTVK (Ac-AMVSEFLKQAWFIENEEQEYVQTVK; listed as Homo sapiens) [Ac.2-26, reference compound]”, the T cell proliferation result in experiment [1] (Ac.2-26, data not shown) was “increased”. The IL-2 production result in experiment [2] (Ac.2-26 100 μM, anti-CD3/CD28 0.6, 1.25 or 2.5 μg/ml, 24 hrs, FIG. 9) is reported as “increased”.

B1: hrAnx-A1: Endotoxin-free human recombinant Anx-A1 (Annexin-1, 37-kDa protein) (protein, UniProt P04083 1-346, looked up)
chain: MAMVSEFLKQAWFIENEEQEYVQTVKSSKGGPGSAVSPYPTFNPSSDVAALHKAIMVKGVDEATIIDILTKRNNAQRQQIKAAYLQETGKPLDETLKKALTGHLEEVVLALLKTPAQFDADELRAAMKGLGTDEDTLIEILASRTNKEIRDINRVYREELKRDLAKDITSDTSGDFRNALLSLAKGDRSEDFGVNEDLADSDARALYEAGERRKGTDVNVFNTILTTRSYPQLRRVFQKYTKYSKHDMNKVLDLELKGDIEKCLTAIVKCATSKPAFFAEKLHQAMKGVGTRHKALIRIMVSRSEIDMNDIKAFYQKMYGISLCQAILDETKGDYEKILVALCGGN
modifications: full-length
Take B1: the cell proliferation entry in experiment [1] (pre-treatment with hrAnx-A1, anti-CD3/CD28 5.0, 2.5 and 1.25 μg/ml, 24 hrs, FIG. 3A) is listed as “augmented”. In addition, in experiment [2] (anti-CD3/CD28 1.25 μg/ml, different concentrations of hrAnx-A1, 24 hrs, FIG. 3B), the IL-2 production entry is recorded as “augmented”. Besides, in experiment [3], the “cell surface expression of CD25” value is on record as “augmented” and the “cell surface expression of CD69” value was “augmented”. Moreover, the “activation of AP-1” value in experiment [4] was “increased activation”. In experiment [5], the “activation of NF-κB” value is reported as “increased activation”. The “activation of NFAT” value in experiment [6] was “increased activation”. Further, in the experiment with naïve lymph node T cells, the IFNγ production result is “increased”, the IL2 production result was “increased”, the IL4 release result is reported as “decrease” and the “IL 10 release” value is recorded as “decrease”. Moreover, the “signs and symptoms of arthritis (paw volume, clinical score)” value with DBA mice is given as “exacerbated”.
